Experimental data as given in patent publication US20190233540A1 (JUNSHI BIOSCIENCES, published 2019).

Assays:
[1] = biological target: T1, human PCSK9 D347Y recombinant protein (human, UniProt Q8NBP7 31-692, biotin label (sites not given) in Examples 3 and 9); assay: cell-based or functional assay
[2] = biological target: T2, human PCSK9 recombinant protein (human PCSK9 extracellular region protein) (human, UniProt Q8NBP7 31-692, biotin label (biotin-xx-NHS, sites not stated) in the ELISA and flow cytometry assays); assay: ForteBio instrument (BLI)
T2 construct: extracellular domain; The tag from the vector pSec CAGA2 ECD is not described; PCSK9 is a secreted protein; also called hPCSK9; HPCSK9

[3] = biological target: T1, human PCSK9 D347Y recombinant protein; assay: ELISA, biotin-labeled PCSK9 (D347Y by the legend) at 2 ug/ml captured on streptavidin, antibody titrated; unit taken from the axis log(ng/ml)
[4] = biological target: T1, human PCSK9 D347Y recombinant protein; assay: ELISA, antibody coated at 1 ug/ml, biotin-labeled PCSK9 (D347Y by the legend) titrated, HRP-streptavidin; the concentration is that of PCSK9; unit taken from the axis log(pg/ml)
[5] = biological target: murine-derived PCSK9 (murine, UniProt Q80W65 35-694, limits assumed); assay: ELISA, species cross-reactivity
[6] = biological target: T1, human PCSK9 D347Y recombinant protein; assay: competition ELISA, biotin-labeled PCSK9 (D347Y by the legend) captured on streptavidin, antibody titrated in 200 ng/ml reference antibody, bound reference antibody detected with anti-human IgG-Fc; competitor: reference antibody; unit taken from the axis log(ng/ml); the curve is nearly flat (OD450 about 1.2 to 1.1), ambiguous fit
[7] = biological target: T1, human PCSK9 D347Y recombinant protein; assay: cell-based or functional assay; remark: listed apart in the source
[8] = biological target: T2, human PCSK9 recombinant protein (human …); assay: ELISA, biotin-labeled PCSK9 at 2 ug/ml captured on streptavidin, antibody titrated; unit taken from the axis log(pg/ml)
[9] = biological target: T1, human PCSK9 D347Y recombinant protein; assay: competition ELISA, biotin-labeled PCSK9 (D347Y by the legend) captured on streptavidin, antibody titrated in 200 ng/ml reference antibody, bound reference antibody detected with anti-human IgG-Fc; competitor: reference antibody; unit taken from the axis log(ng/ml)
[10] = biological target: T2, human PCSK9 recombinant protein (human …); assay: ELISA, biotin-labeled PCSK9 at 0.2 ug/ml captured on streptavidin, antibody titrated; unit taken from the axis LOG (pg/mL)

T1 sequence (Q8NBP7 31-692 D374Y): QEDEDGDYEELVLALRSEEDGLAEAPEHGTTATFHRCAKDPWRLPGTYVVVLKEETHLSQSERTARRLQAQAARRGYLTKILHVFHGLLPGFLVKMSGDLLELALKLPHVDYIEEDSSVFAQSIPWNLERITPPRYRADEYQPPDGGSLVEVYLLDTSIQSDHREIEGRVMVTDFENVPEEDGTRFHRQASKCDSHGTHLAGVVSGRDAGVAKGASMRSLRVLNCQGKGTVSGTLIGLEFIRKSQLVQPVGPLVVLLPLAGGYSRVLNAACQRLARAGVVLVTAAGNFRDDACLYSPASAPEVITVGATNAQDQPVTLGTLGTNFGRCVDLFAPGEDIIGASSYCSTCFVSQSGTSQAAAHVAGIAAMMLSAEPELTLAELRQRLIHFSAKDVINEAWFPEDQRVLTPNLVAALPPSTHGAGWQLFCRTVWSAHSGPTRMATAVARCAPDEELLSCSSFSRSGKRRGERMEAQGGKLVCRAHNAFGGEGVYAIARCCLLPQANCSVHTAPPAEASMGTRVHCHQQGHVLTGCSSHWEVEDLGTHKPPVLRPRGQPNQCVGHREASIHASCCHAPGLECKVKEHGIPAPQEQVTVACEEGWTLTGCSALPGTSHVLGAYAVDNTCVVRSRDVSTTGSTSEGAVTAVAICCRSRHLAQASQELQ
T2 sequence (Q8NBP7 31-692 limits assumed): as the sequence (Q8NBP7 31-692 D374Y) above, with Y344D counted along it
Chain of murine-derived PCSK9 (Q80W65 35-694 limits assumed): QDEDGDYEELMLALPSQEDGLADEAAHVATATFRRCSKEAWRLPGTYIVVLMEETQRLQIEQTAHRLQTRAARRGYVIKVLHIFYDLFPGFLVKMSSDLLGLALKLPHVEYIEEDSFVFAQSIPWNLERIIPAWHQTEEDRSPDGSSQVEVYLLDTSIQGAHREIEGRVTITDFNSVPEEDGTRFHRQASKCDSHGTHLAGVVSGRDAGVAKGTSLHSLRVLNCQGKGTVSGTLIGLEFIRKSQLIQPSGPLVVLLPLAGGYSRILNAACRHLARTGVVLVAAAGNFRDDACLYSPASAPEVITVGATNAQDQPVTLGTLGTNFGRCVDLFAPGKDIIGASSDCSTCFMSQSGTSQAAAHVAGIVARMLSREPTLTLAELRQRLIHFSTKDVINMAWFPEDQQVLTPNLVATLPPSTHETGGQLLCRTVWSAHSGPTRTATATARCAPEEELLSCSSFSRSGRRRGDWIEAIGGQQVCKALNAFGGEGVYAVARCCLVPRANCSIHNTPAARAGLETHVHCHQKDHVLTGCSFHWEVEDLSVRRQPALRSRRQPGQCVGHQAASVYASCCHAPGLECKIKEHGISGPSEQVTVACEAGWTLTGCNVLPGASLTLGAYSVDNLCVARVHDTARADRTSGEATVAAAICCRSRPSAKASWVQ

Binder	IC50, LDL uptake of HepG2 cells [1]	Kd [2]	EC50 [3]	EC50 [4]	binding result [5]	IC50 [6]	IC50(nM), LDL uptake of HepG2 cells (FL-LDL fluorescence) [7]	EC50 [8]	IC50 [9]	IC50, LDL uptake of HepG2 cells (Dil-LDL fluorescence) [1]	EC50 [10]
2B12 murine-derived anti-PCSK9 monoclonal antibody (antibody, V domains shown, Mouse hybridoma antibody) VH: DVQLQESGPGLVKPSQSLSLTCSVTGFSITSDYAWNWIRQFPGNKLEWMGYISYSGTTNYNPSLKSRISITRDTSKNQFFLHLNSVITEDTATYYCARREGHYSWFPYWGQGTLVTVSA VL: DIVLTQSPASLAVSLGQRATISCRASESVEYYGTSLMHWYQHKPGQTPKLLIYSGSNVESGVPARFSGSGSGTDFSLNIHPVEEDDIAMYFCQQSREVPSTFGGGTKLEIK	~1 µg/mL	0.49 nM	0.023 µg/mL	0.0389 µg/mL	–	–	–	–	–	–	–
1B11 murine-derived anti-PCSK9 monoclonal antibody (antibody, V domains shown, Mouse hybridoma antibody) VH: QVQLQQSGAVLVRPGTSIKVSCKASGYAFTNYLIEWIKKRPGQGLEWIGMINPGSGDTNFNEKFKAKATLTADKSSTTAYMQLNSLTFDDSAVYFCARSSQLGLPYWGQGTLVTVSA VL: DIQMTQSPASLSASVGETVTITCRASENIYSYLAWYQQKQENSPQLLVYNAYTLADGVPSRFSGSGSGTQFSLKIISLQPEDFGNYYCQHHYRTPPTFGGGTKLEIK	~1 µg/mL	4.7 nM	–	0.143 µg/mL	no binding	~0.227 µg/mL	–	–	–	–	–
3G12 murine-derived anti-PCSK9 monoclonal antibody (antibody, V domains shown, Mouse hybridoma antibody) VH: QVQLKQSGPSLLQPSQSLSITCTVSGFSLTSYGIHWVRQSPGKGLEWLGVIWRGGITDYNAPFMSRLNITKDNSKNQVFFKMNSLQVDDTAIYYCANHRDWGQGTLVTVSA VL: DIQMTQSPSSLSASLGGKVTITCKASQDINKYIDWYQHKPGKSPRLLIHYASTLQPGIPSRFSGSGSGRDYSFSISNLEPEDIATYYCLQYDDLWTFGGGTKLEIK	~1 µg/mL	0.28 nM	0.223 µg/mL	0.0835 µg/mL	–	–	5.5 nM	0.078 µg/mL	0.0766 µg/mL	–	–
3G12 chimeric antibody (antibody, V domains shown) VH: QVQLKQSGPSLLQPSQSLSITCTVSGFSLTSYGIHWVRQSPGKGLEWLGVIWRGGITDYNAPFMSRLNITKDNSKNQVFFKMNSLQVDDTAIYYCANHRDWGQGTLVTVSA VL: DIQMTQSPSSLSASLGGKVTITCKASQDINKYIDWYQHKPGKSPRLLIHYASTLQPGIPSRFSGSGSGRDYSFSISNLEPEDIATYYCLQYDDLWTFGGGTKLEIK	–	–	–	–	–	–	–	0.0338 µg/mL	–	–	–
1A5 murine-derived anti-PCSK9 monoclonal antibody (antibody, V domains shown, Mouse hybridoma antibody) VH: QVQLKQSGPSLVQPSQSLSITCTVSGFSLTSYGVHWVRQSPGKGLEWLGVIWRGGSTDYNAAFMSRLSITKDNSKSQVFFKMNSLQADDTAIYYCANHRDWGQGTLVTVSA VL: DIQMTQSPSSLSASLGDKVTITCKASQDINKYIDWYQHKPGKGPRLLIHYTSTLQPGIPSRFSGSGSGRDYSFSISNLEPEDIATYYCVQYDDLWTFGGGTKLEIK	~1 µg/mL	0.91 nM	0.251 µg/mL	0.752 µg/mL	–	–	–	–	0.808 µg/mL	–	–
humanized anti-PCSK9 antibody clone 32 (antibody, V domains shown, also called humanized antibody) VH: QVQLQESGPGLVKPSQTLSLTCTVSGFSISSYGIHWIRQSPGKGLEWIGVIWRGGITDYNAPFMSRVTISKDNSKNQVSFKLSSVTAADTAVYYCANHRDWGQGTLVTVSS VL: DIQMTQSPSSLSASVGDRVTITCQASQDINKYIDWYQHKPGKAPKLLIHYASTLQPGVPSRFSGSGSGRDYTFTISSLQPEDIATYYCLQYDDLWTFGQGTKVEIK	–	–	–	–	–	–	–	–	–	~1 µg/mL	0.00516 µg/mL
humanized anti-PCSK9 antibody clone 77 (antibody, V domains shown, It shares its light chain with clone 32; also called humanized antibody) VH: QVQLQESGPGLVKPSQTLSLTCTVSGFSISSYGVHWIRQSPGKGLEWIGVIWRGGSTDYNAAFMSRVTISKDNSKNQVSFKLSSVTAADTAVYYCANHRDWGQGTLVTVSS VL: DIQMTQSPSSLSASVGDRVTITCQASQDINKYIDWYQHKPGKAPKLLIHYASTLQPGVPSRFSGSGSGRDYTFTISSLQPEDIATYYCLQYDDLWTFGQGTKVEIK	–	–	–	–	–	–	–	–	–	~1 µg/mL	0.00481 µg/mL
1B5 murine-derived anti-PCSK9 monoclonal antibody (antibody, V domains shown, Mouse hybridoma antibody) VH: DVQLQESGPGLVKPSQSLSLTCTVTGYSITSDYAWNWIRQFPGNKVEWMGYISYSGSSSYNPSLKGRISITRDTSKNQFFLQLNSVTTEDTATYYCARFYYRFDAYFDSWGQGTTLTVSS VL: not shown	~1 µg/mL	0.9 nM	0.318 µg/mL	0.666 µg/mL	–	–	–	–	0.675 µg/mL	–	–
